# Measured values taken from the nanobody polyreactivity screen of Harvey et al. (2022).
# Test: yeast display, Sf9 membrane polyspecificity reagent, FACS + sequencing; frameworks hold sequencing errors
# Method in brief: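 Galactose-induced (36–48 hours) yeast carrying a synthetic nanobody display library were exposed to 10% biotinylated, detergent-solubilized Sf9 membrane reagent at 4 °C for 1 hour. FACS followed streptavidin microbead enrichment, using low and high (top ~1%) gates for expression (anti-HA) and reagent binding (streptavidin). Colony PCR, MiSeq 2 × 250 sequencing and CDR-length filtering followed. Labels for polyreactivity reflect the gate of origin.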
row,Sequence,polyreactivity (PSR sort gate)
1,QVQLVESGGGLVQAGGSLRLSCAASGFTFQYYAMGWYRQAPGKERELVAAISWSGASTYYADSVKGRFTISRDNAKNTVYLQMNSLKPEDTAVYYCAADYWGHEYDYWGQGTQVTVSS,high polyreactivity
2,QVQLVESGGGLVQAGGSLRLSCAASGSIFDANAIGWYRQAPGKERELVAAIDSGDITNYADSVKGRFTISRDNAKNTVYLQMNSLKPEDTAVYYCAAEWHYIYAYDYWGQGTQVTVSS,low polyreactivity
3,QVQLVESGGGLVQAGGSLRLSCAASGLIFLEYAMGWYRQAPGKEREMVAAISTSGGSTYYADSVKGRFTISRDNAKNTVYLQLNSLTPEDTAVYYCAADPVYNYYFDDGDYWGQGTQVTVSS,low polyreactivity
4,QVQLVESGGGLVQAGGSLRLSCADSGFTFGRYAMRWYRQATGKERELVAAISRGGSYTYYADSVKGRLTISRDNAQNTVFLQMNSLKPEDTAVYYCNIVIIWARFDYWRQGTQVTVSS,high polyreactivity
5,QVQLVESGGGLVQAGGSLRLSCAASGLTFKWYAMGWYRQAPGKERELVAASSRDGSTYYADSVKGRFTLSRDNAKNTVYLQMTSLKPEDTAVDYCAADIWPSSLLADEYDYWGQGTQVTVSS,high polyreactivity
6,QVQLVESGGGLVQAGGSLRLSCAASGRIYGLYAMGWYRQAPGKERELVAAISEGGGSTNYADSEKGRFTISRDNAKNTFYLQMNSLKPDDTAVYYCAATYRTGVRRYYSWGQGTQVTVSS,low polyreactivity
7,QVQLVESGGGLVQAGGSLRVSCAASGSIFIGYAMGWSRQAPGKERELVAAINDSGDRTYYADSVKGRFTISRDNAKNTVYLQMNSLKPEDTAVYYCAADLVSLDPEYDYWGQGTQVTVSS,low polyreactivity
8,QVQLVESGGGLVQAGGSLRLSCAASGFTFGYNTMGWYRQAPGKERELVATITSGGSTYYADSVKGRFTISRDNAKNTDYLQMNSLKPEDTAVYYCAATAGSPWAKSRYGYWGQGTQVTVSS,low polyreactivity
9,QVQLVESGGGLVQAGGSLRLSCASSGSTFVSYAMGWYRQAPGKERELVAGISWSGTRTYYADSVKGRFTISRDNAKNTVYLQMNSLKPEDTAVYYCAALDSSYNWYGYWGQGTQVTVSS,high polyreactivity
10,QVQLVDSGGGLVQAGGSLRLSCAASGLIFPYNAMGWYRQAPGKERELVAAIDSGVTTYYADSVKGRFTISRDNAKNTVYLQMNSLKPEDTAVYYCAAVGLPGPEGDSWGQGTQVTVSS,low polyreactivity
11,QVQLVESGGGLVQAGGSLRLSCAASGFYYGIGWYRQAPGTERELVAVITRGGSTNYADSVKGRFTISRDNAKNTVYLQMISLKPEDTAVYYCAARLYWAYRYGSWGQGSQVTVSS,high polyreactivity
12,QVQLVESGGGLVQAGGSLRLSCAASGSTFYDYAMGWYRQAPGKERELVASIDSGDSTNYADSVKGRFTISRDNAKNTVYLQMNSLKPEDTAVYYCAADYQNTGARYWYYYWGQGTQVTVSS,low polyreactivity
13,QVQLVESGGGLVQAGCSLRLSCAASGITFVGYAMGWYRQAPGKERELVAAISSSGGSTYYADSVKGRFTISRDNAKNTVYLQMNSLKPEDTAVYYCAKRRWWQKSLYDYWGQGTQVTVSS,high polyreactivity
14,QVQLVESGGGLVQAGGSLRLSCAASGRTFNYNAMGWYRQAPGKERELVAAINYNGGSTYYADSVKGRFTISRDNAKNTVYVQMNSLKPEDTAVYYCAADYNEYDWGQGTQVTVSS,low polyreactivity
15,QVQLVESVGGLVQAGGSLRLTCAASGRILGYYAMGWYRQAPWKERELVAAISRAGSTNYADSVKGRFTISRDNAKNTVNLQMNSLKPEHTAVYYCAARQYRRGYNYWGQGTQVTVSS,high polyreactivity
16,QVQLVESGGGLVQAGGSLRLSCAASGRTFGRYALGWDRQAPGKDRELVAAISYSTDSTYYADSVKGRFTISRDNAKNTVYLQMNSLKPEDTAVYYCATDSVNVGSYVGDKHDYWGQGTQVTLSS,low polyreactivity
17,QVQLVESGGGLVQAGGSLRISCASSGFTIWGYTMVWYRQAPGKERELVAAITSTGSTYYADSVKGRFTISRDNAKNTVYLQMNSLKPEDTAVYYCAAESYYGYDYWGQGTQVTVSS,low polyreactivity
18,QVQLVESGGGLVQAGGSLRLSCAASGSIFTYNAMGWYRPAPGKERELVASITWSGGSTYYADSVKGRFTISRDNAKNTVSLQMNSLKPEDTAVYYCAAKRVHGATGYWGQGTQVTVSS,high polyreactivity
19,QVQLVESGGGLVQAGGSLRLSCAASGRTFYYNAMGWYRQAPGKERELVASISWSGTSTYYADSVKGRFTISRDNAKNTVYLQMNSLKPEDTAVYYCATDSYWRQDLYRYEYWGQGTQVTVSS,high polyreactivity
20,QVQLVESGGGLVQAGGSLRLSCAASGIIFVWNAMGWYRQAPGKERALVAAITNGGSTYYADSVKGRFTISRDNAKTTVYLQMTSLKPEETAVDYCHVRYFFRFRDDYWGQGTQVTVSS,low polyreactivity
21,QVQLVESCGGLVQAGGSLRLSCAASGRTFVTYAMGWYRQAPGKERELVAAISASGGSTYYADSVKGRFTISRDNAKNTVYFQMNSLKPEDTAVYYCAKTYFLATPYGYWGQGTQVTVSS,low polyreactivity
22,QVQLVESGGGLVQAGGSLRLSCAASGRIGRYAMGWYRQAPGKERELVAAITWSGGSTYYADSVKGRFTISRDNAKNTVYLQMNSLKPEDTAVYYCATGRYRDQPRTGYDYWGQGTQVTVSS,high polyreactivity

row,Sequence,polyreactivity (PSR sort gate)
1,QVQLVESGGGLVQAGGSLRLSCAASGRTFYYYTMGWYRQAPGKERELVAANTWNGGSTYYADSVKGRFTISRDNAKNTVYLQMNSLKPEDPAVYYCNARWTWRYDYWGQGTQVTVSS,high polyreactivity
2,QVQLVESGGGLVQAGGSLRLSCAASGSIFRRNAMGWYRQAPGKEREFVAAITWIGGSTYYADSVKGRFTISRDNAKNTVYLQMNSLKPEDTAVYYCAAKYRTYPSNYYYWGQGTQVTVSS,high polyreactivity
3,QVQLVESGGGLVQAGGSLRLSCAASGFTFPRYAMGWYRQAPGKERELVAAISYRGGSTYYADSVKGRFTISRDTAKNTVYLQMNSLKPEDTAVSYCNAVGGPVRGYPYDYWGQGTQVTVSS,high polyreactivity
4,QVQLVESGGGLVQAGGSLRLSCAPSGGTFYANDMGWYRQAPGKERELVATISKSGGSTYYAESVKRPFTISRDNAKNTVYCQMNSLKPEVTAVYYCAARTTYLYGMYYWGQGTQVTVSS,low polyreactivity
5,QVQLVESGGGIVQSGGSLRLSFAASGSIVDWNAMGWYRQAPGKARELVASISSGGSTDYADSVKGRFTISRDNAKNTVYLQMNSLKPEDTAVYYCNADAYAYYPPRWYYGYDYWGQGTQVTVSS,low polyreactivity
6,QVQLVESGGGLVQAGGSLRLSCAASGLTFKYYAMGWYRQAPGKESELVAAITSTGGRTYYADSVKGRFTISRDNAKNTVYLQMNSLKPEDTAVYYCAAYYVGSSKYDSWGQGTQVTVSS,low polyreactivity
7,QVQLVESGGGLVQAGGSLRLSCAASGRIFNNYAMGWYRPAPGKERELVAAISTSGGSTYYADSVKGRFTISRDNAKNTVYLQMNSLKPEDTAVYYCNAVSRKRHYAPSYDYWGQGTQVTVSS,high polyreactivity
8,QVQLVESGGCLVQAGGSLRLSCAASGLTLDQYALGWYRQAPGKEREFVAAISYSGGNTYYADSVKGRFTISRDNAKYTVYLQMNSLKPEDTAVYYCAAYYFYFYHKVIWYELDYWGQGTQVTVSS,low polyreactivity
9,QVQLVESGGGIVQAGGSLRLSCAASGFTFDIYAMGWYRQAPGTERELVATISFTGDTTSYADSVKGRFTISRDNAKNTVYLQMNSLKPEDTAVYYCAADGSYPLSVGRENLHYAEFDYWGQGTQVTVSS,low polyreactivity
10,QVQLVESGGGLVQAGGSLRLSCAASGGTFRRNAMGWYRQAPGKERELVAAISFNGDRTYYADSVKGRFTISRDNAKNTVYLQMNSLKPEDTAVYYCNKASWWWGGYTYPHEYWGQGTQVTVSS,low polyreactivity
11,QVQLVESGGGLVQAGGSLRLSCAASGRTFGVNAMGWYRQAPGKERELVAAIDSSGGSTYYADSVKGRFTISRDNAKNTVYLQMNSLKPEDTAVYYCAGPYRPDYDYWGQGTQVTVSS,high polyreactivity
12,QVQLVESGGGLVQAGGSLRLSCAASGSIFNWNTMGWYRQAPGKERELVAAITYDGGTTYYADSVKGRFTISRDYAKNNVYLQMISLKPEDTAVYYCAAEFLYKYGRYDYWGQGTQVTVSS,high polyreactivity
13,QVQLVESGGGLVQAGGSLRLSCAASGRIFWINAMGWYRQAPGKERELVAAISSGGGTHYADSVKGRFTISRDNAKNTVYLQMNSLKPEDTAVSYCARRYQRKKPVFPHYQGAYDYWGQGTQVTVSS,low polyreactivity
14,QVQLVESGGGLVQAGGSLRLSCAASGRILNVYAMGWYRQAPGKERELHAAINYRGTNTYYADSVKGRFTISRDNAKNTVFLQMNSLKPEDTAVYYCAAERWYYNVYAEYSWGQGTQVTVSS,high polyreactivity
15,QVQLVESGGGLDQAGGSLRLSCAASVLIFNIYARGWYRQAPGKERELVATIRYSGGSTNYADSVKGRFTISRDNAKNTVYLQMNSLKPEDTAVYYCNAGYYPSGYDYWGQGTQVTVSS,low polyreactivity
16,QVQLVESGGGLVQAGGSLRLSCAASGRTFVRNAMGWYRQAPGKERELVAAINSGGSTNYADSLKGRFTISRDNPKNTVYLQMNSLKPEDTAVYYCNAPRQHVGNGNYWGQGTQVTVSS,low polyreactivity
17,QVQLVESGGGLVQAGGSLRLSCAASGRIFDDNAMGWYRQAHGKERELVATISSTGGRTYYADSVKGRFTISRDNAKKTVYLQMNSLKPEDTAVYYCAARRLQGGYYYWGQGTQVTVSS,high polyreactivity
18,QVQLVESGGGLVQAGGSLRLSCSASGSTFESNAMGWYRQAPGKERELVASISGSGGSTFYADSVKGRFTISRDNAKNTVYLQMNSLKPEDTAVYYCAAYKEPYYEEYGYWGQGTQVTVSS,low polyreactivity
19,QVQLVESGGGLVQAGGSLRLSCAASGSMFYFYAMGWYRQAPGKERELVAAISWCDGDTYYADSVKGRFTISRDNAKNTVYLQMNSLKPEDSAVYYCAAEGLTRYYQYDYWGQGTQVTVSS,high polyreactivity
20,QVQLVESGGGLVQAGGSLRLSCAASGSTFYVNAMGWYRQAPGKERELVATISSGGSTNYADSVKGRFTISRDNAKNTVYLQMNSLKPEDTAVYYCAKEYGSIIPYDYWGQGTQVSVSS,low polyreactivity
21,QVQLVESGGGLVQAGGSLRLSCAASGSTSGSYAMGWYRQAPGKERELVATISWSGGRTYYADSVKGRFTISRDNAKNTVYLQMNSLKPEDTAVYYCAARRYAFRYYGYDYWGQGTQVTVSS,high polyreactivity
